The values below come from US20150099861A1.

For the assay, the target named is CMV peptide 495-503 (pp65) presented on target cells (CMV) (UniProt P06725).

As to “CD8+ T cells educated against pp65 peptide in the IVE assay (untreated) (cells without a defined receptor)”, the lysis in the chromium release assay was > 50%.
